The supplement of paper PMC10724198
± gives the standard deviation of the averaged measurements.

System: Saccharomyces cerevisiae
Experiment: protein stability index of tFT-peptide fusion (C-terminal peptide) (PSI (0-1 scale)); higher = more stable (slower turnover)
Conditions: genetic background: wild type; temperature: 30 C
Method: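 Multiplexed protein stability (MPS) profiling in S. cerevisiae. Random 12-aa peptides (tFT-X12 library) are fused to the C-terminus of a sfGFP-mCherry tandem fluorescent timer, after mCherry and a GGGS linker. Cells are FACS-sorted into 8 mCherry/sfGFP bins and deep-sequenced. The protein stability index (PSI) is the read-weighted bin average, scaled from 0 (unstable) to 1 (stable). Only peptides with >10 reads are reported; cells were grown at 30 °C in SC-His with glucose.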
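Also: PSI is a weighted mean of sequencing reads over stability bins, variants kept only with over 10 reads, mCherry proximal and sfGFP distal, peptide attached via GGGS linker.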

Sequence | protein stability index
HKDVRGRSLSRM | 0.7183 ± 0.0024
HKENTKEKKKRE | 0.693 ± 0.043
HLFPSPPPSTLP | 0.495 ± 0.045
HLFVPGAFFFFS | 0.718 ± 0.073
HLGIKGFHIFGY | 0.69 ± 0.0071
HLIPSPPTPPRP | 0.664 ± 0.0072
HLKPTPPLPPNT | 0.67 ± 0.017
HLLPRPIRPSTP | 0.664 ± 0.074
HLLSPPLPPSPA | 0.728 ± 0.039
HLPPLPRPPSLT | 0.7049 ± 0.0069
HLPSLLRPPFLL | 0.7038 ± 0.0018
HLPSPSLPSPYF | 0.7648 ± 0.0017
HLPSSRHNPLQN | 0.695 ± 0.037
HLPWTGTPHATV | 0.737 ± 0.029
HLRSALSVHPTL | 0.707 ± 0.051
HLSPPPLMPPCC | 0.759 ± 0.067
HNDYKGSQIDNG | 0.573 ± 0.046
HNIQHKIHTKSR | 0.761 ± 0.039
HNRSFLIPFFPF | 0.671 ± 0.085
HPKASNSLRFSS | 0.649 ± 0.0072
HPLPPTGPPSPS | 0.77 ± 0.041
HPPLAPQPPPPP | 0.711 ± 0.033
HPPLPRPPPPPP | 0.645 ± 0.057
HPPPLGSSASNS | 0.703 ± 0.039
HPPPPSPPSPLP | 0.724 ± 0.036
HPPPTPPSPPPP | 0.667 ± 0.088

Sequence | protein stability index
HPPPTSQPPPGP | 0.726 ± 0.05
HPPRPPLPRPRL | 0.778 ± 0.19
HPPSLPSAPSLP | 0.694 ± 0.029
HPPYRHHPAPLR | 0.673 ± 0.058
HPQPIPVGGLSF | 0.6962 ± 0.0049
HPSGLFSFVCLS | 0.567 ± 0.0057
HPSREPLLLCYH | 0.618 ± 0.067
HPTDVAISPRPS | 0.678 ± 0.023
HPTSHRPLPAAF | 0.724 ± 0.0075
HPTSNQATGRAN | 0.692 ± 0.077
HREQSTILDLKE | 0.715 ± 0.036
HRFFDGVRFPGH | 0.692 ± 0.038
HRFPPDLYQHGP | 0.645 ± 0.011
HRFPPPRPPPFS | 0.729 ± 0.047
HRLTFLDTPSGH | 0.781 ± 0.076
HRNAFLLPPFPL | 0.695 ± 0.014
HRQERLETKTYF | 0.623 ± 0.13
HSFASTWYSSPG | 0.685 ± 0.0076
HSGPPSPFPLNV | 0.718 ± 0.034
HSHTHRHSHGTR | 0.7 ± 0.083
HSPPPSLGPVPA | 0.6636 ± 0.0049
HSRAPNNWHRGI | 0.708 ± 0.043
HSRPRRQPPHSP | 0.705 ± 0.018
HSTENGGCTREY | 0.646 ± 0.039
HSTPDSAAQEPG | 0.673 ± 0.065
HTLQDERNRRRD | 0.696 ± 0.072

Sequence | protein stability index
HTPTFPTSPPPP | 0.68 ± 0.016
HTWAFYSETVCL | 0.694 ± 0.0092
HVHSLAFPPPAT | 0.695 ± 0.068
HVKVGCGNGIVR | 0.644 ± 0.014
HVLRCRASLLFL | 0.6305 ± 0.0031
HVPFPPTVLNSP | 0.667 ± 0.088
HVTHRAVNVPLE | 0.674 ± 0.029
HWCQKNKFKAIS | 0.669 ± 0.033
HWSVATNMLEQH | 0.74 ± 0.054
HYSLSHLRIVLD | 0.645 ± 0.011
IAFLSRCWSFYL | 0.49 ± 0.014
IAFSINAFCWRG | 0.552 ± 0.055
IAMVTLPRLNKS | 0.7179 ± 0.0071
IARKCLTGGGVS | 0.696 ± 0.065
IAYGCCYKELII | 0.63 ± 0.046
ICGLLFNLCKHD | 0.622 ± 0.045
ICITIRQTRENK | 0.668 ± 0.027
ICLMRETAGRED | 0.757 ± 0.2
IDCCAGDSMAGI | 0.703 ± 0.072
IDKVTNTGSRKV | 0.582 ± 0.05
IDSNLCFVKSYT | 0.618 ± 0.064
IEGKDSQEREGR | 0.706 ± 0.075
IERRCGRCMCFM | 0.783 ± 0.1
IESFFLFSFSFP | 0.762 ± 0.31
IFKSGLPLRVGL | 0.657 ± 0.028
IFRFHRSRNSKY | 0.722 ± 0.029

Sequence | protein stability index
IFWGFSFRGGGC | 0.656 ± 0.029
IGDRQIDFFKKD | 0.7073 ± 0.0024
IGEAWERGQEAK | 0.679 ± 0.027
IGITWDVFLGLG | 0.705 ± 0.03
IGKLDYVCWRVL | 0.602 ± 0.029
IGLPCSSGCCCH | 0.702 ± 0.088
IGLVRPSGTQQT | 0.6764 ± 0.006
IGLVVVRPKIMI | 0.558 ± 0.012
IGNFTTEVDGWG | 0.662 ± 0.036
IGRSPRVLSATP | 0.6534 ± 0.0059
IGSFTRTTKKFK | 0.723 ± 0.0073
IGSHDTRVVKMD | 0.731 ± 0.059
IGSLASRSALLL | 0.676 ± 0.0083
IGVAARPWAGAQ | 0.706 ± 0.02
IGVNEDSAIVCM | 0.562 ± 0.024
IGYHGRSLGWKR | 0.635 ± 0.082
IHDGKKEGKSQK | 0.695 ± 0.017
IHLALYKYEVMG | 0.584 ± 0.017
IHQQEVKSRICT | 0.592 ± 0.031
IHSPSAYLQPSF | 0.761 ± 0.029
IICDIFYCSTVS | 0.644 ± 0.01
IIDCQVSFSFLI | 0.588 ± 0.063
IIIEYNINRKKI | 0.611 ± 0.05
IIKMNERTLTKI | 0.692 ± 0.099
IKGSLILRGRGE | 0.657 ± 0.025
IKKEKKQKKKKG | 0.665 ± 0.098

Sequence | protein stability index
IKKKKKEKGDST | 0.713 ± 0.082
IKKKKKKGIILD | 0.71 ± 0.05
IKKKKKKKKKRD | 0.652 ± 0.016
IKKKKKKTPKNM | 0.714 ± 0.062
IKKKQKIPKNAK | 0.678 ± 0.013
IKKNHKENKRKE | 0.666 ± 0.016
IKLVVLGPLVWF | 0.625 ± 0.018
IKNMWLACFGLY | 0.667 ± 0.027
IKNQNKKKKNKK | 0.689 ± 0.05
IKPVETEKRECK | 0.668 ± 0.094
IKSDCKDRRKRR | 0.7233 ± 0.0072
IKTKREKNGVSS | 0.722 ± 0.016
IKVIACSEPIPG | 0.592 ± 0.021
ILCLAPLSCYPV | 0.832 ± 0.055
ILCPGLYQFLVF | 0.529 ± 0.038
ILDSPMWQPVSM | 0.727 ± 0.056
ILFSSDLNSFSW | 0.744 ± 0.03
ILQWEESRKGGI | 0.715 ± 0.054
ILRGRDLPHGLG | 0.688 ± 0.03
ILRLSLPYEGYI | 0.645 ± 0.032
IMGIIKFKSYRI | 0.703 ± 0.12
IMKQHNYIGFVF | 0.608 ± 0.062
IMNNSKIYRSVG | 0.6593 ± 0.0021
IMVLKAAVSKQE | 0.69 ± 0.09
INGICDPQANSR | 0.71 ± 0.027
INKATYTQIYKN | 0.667 ± 0.021

Sequence | protein stability index
INQEKKLKNNKK | 0.70627 ± 0.0004
INWIHERNDKSI | 0.734 ± 0.027
IPCKVCQSLIPP | 0.611 ± 0.12
IPGSPIATARPG | 0.665 ± 0.025
IPPFLVSLPFLP | 0.702 ± 0.018
IPSCAGLPLSLS | 0.7134 ± 0.0019
IPSCSTPAPHLP | 0.677 ± 0.022
IQAVSRDYVELR | 0.652 ± 0.031
IQKNKQEVKTNI | 0.685 ± 0.1
IRDKTSIRKLEK | 0.677 ± 0.058
IRFCILRRLGRH | 0.588 ± 0.028
IRKGKKIRKKEN | 0.641 ± 0.037
IRLPHPPLPPSP | 0.6673 ± 0.0025
IRPRRFSPGSTR | 0.7 ± 0.043
IRPWPLDPPPGR | 0.78 ± 0.08
IRRAGPMVAKGK | 0.649 ± 0.086
ISAPLPTLLSVL | 0.559 ± 0.041
ISCVSFCCLFDL | 0.601 ± 0.0022
ISFGSKLPHHLP | 0.657 ± 0.11
ISGDGWNFVGIV | 0.715 ± 0.097
ISGRRPWGFGGE | 0.642 ± 0.041
ISPQEPLVNTTN | 0.665 ± 0.018
ISPSASTSRPFQ | 0.697 ± 0.11
ISRLLMAMESRN | 0.653 ± 0.024
ISSNMIVMAICG | 0.6 ± 0.03
